Experiment [1] addresses T1, recombinant human DLL4 (Cat# 1506-D4/CF, R&D Systems) (human, UniProt Q9NR61 27-529).
T1 construct: Bought protein; also called hDLL4; rHuman DLL4
In words: ELISA, DLL4 coated, Fab 50 nM. The method, then:
(§1) The plate was blocked by adding 1% BSA in Tris-buffered Saline Tween (TBST) and incubating for 1 hour at room temperature followed by washing 2 times with 150 μl TBST. A Fab antibody was serially diluted in 1% BSA in PBS. A 50 μl aliquot of each serial dilution was added, in triplicate, to each well and the plate was incubated for 1 hour at room temperature followed by washing 2 times with TBST. 50 μl of either goat anti-human kappa HRP conjugated secondary antibody (Cat # A7164-1 mL, Sigma-Aldrich) or goat anti-human lambda HRP conjugated secondary antibody (Cat # L1645-1 ml, Sigma-Aldrich), diluted 1:1000 in 1% BSA in PBS, was added to each well and the plate was incubated for 30 minutes at room temperature followed by washing 3 times with 200 μl TBST. Finally, 50 μl TMB one-component reagent (Cat # TMBW-1000-01, BioFax) was added and allowed to develop for 2 minutes at room temperature. The reaction was immediately halted by the addition of 50 μl 0.5M H₂SO₄ and the absorbance at 450 nm was measured using an ELISA plate reader.
For orientation: ELISA stands for enzyme-linked immunosorbent assay.

Experiment [2] addresses T1, recombinant human DLL4 (Cat# …). In words: ELISA, DLL4 coated, Fab 75 nM.
Experiment [3] shares this target. In words: ELISA, DLL4 coated, Fab 100 nM.
For experiment [4] the target is unchanged. In words: ELISA, DLL4 coated, Fab 50 nM. How it is done:
as §1
The source holds these as a separate data set.

Experiment [5] has the same target. The experiment is described as follows: ELISA, DLL4 coated, Fab 25 nM. The method, then: as §1
The target is the same in experiment [6]. The experiment is described as follows: ELISA, DLL4 coated, Fab 100 nM. How it is done: as §1
This is another data set of the same source.

Experiment [7] shares this target. The experiment is described as follows: ELISA, DLL4 coated, Fab 12.5 nM. How it is done: as §1
Experiment [8] shares this target. In words: ELISA, DLL4 coated, Fab 6.25 nM. The method, then: as §1
The target is the same in experiment [9]. The experiment is described as follows: ELISA, DLL4 coated, Fab 3.125 nM. How it is done:
as §1

Experiment [10] has the same target. The experiment is described as follows: ELISA, DLL4 coated, Fab 5 nM. How it is done:
as §1

For experiment [11] the target is unchanged. The experiment is described as follows: ELISA, DLL4 coated, Fab 10 nM. The method, then:
as §1

The target is the same in experiment [12]. The experiment is described as follows: ELISA, DLL4 coated, Fab 20 nM. How it is done: as §1
The target is the same in experiment [13]. In words: ELISA, DLL4 coated, Fab 1.3 nM. The method, then: as §1
The target is the same in experiment [14]. The experiment is described as follows: ELISA, DLL4 coated, Fab 2.5 nM. How it is done: as §1
Experiment [15] has the same target. In words: ELISA, DLL4 coated, Fab 0.16 nM. How it is done: as §1
For experiment [16] the target is unchanged. In words: ELISA, DLL4 coated, Fab 0.31 nM. How it is done: as §1
Experiment [17] shares this target. In words: ELISA, DLL4 coated, Fab 0.63 nM. The method, then: as §1

Substitutions are numbered along the chain they refer to. In names and notes the source's numbering stands.

B1: Fab VH1-46_IGHD6-6*01_IGHJ1*01 S102A/S103P/S104F/H111F & L6_IGKJ1*01 (Fab, V domains shown)
VH: QVQLVQSGAEVKKPGASVKVSCKASGYTFTSYYMHWVRQAPGQGLEWMGIINPSGGSTSYAQKFQGRVTMTRDTSTSTVYMELSSLRSEDTAVYYCAREEYAPFSAEYFQFWGQGTLVTVSS
VL: not shown
notes: Fab made in E. coli: VH on CH1 with His6 and Flag tags (Plasmid A), VL on kappa CL (Plasmid C); also called H: APFF & L: wt
For B1, the “ELISA absorbance at 450 nm” value in experiment [1] came out at 0.06 A450; in [2], 0.072 A450; in experiment [3], 0.072 A450.

B2: Fab VH1-46_IGHD6-6*01_IGHJ1*01 S102A/S103P/S104F/H111F & L6_IGKJ1*01 S28N/S30D/S31H A55G (Fab, V domains shown)
VH: B1 VH
VL: EIVLTQSPATLSLSPGERATLSCRASQNVDHYLAWYQQKPGQAPRLLIYDASNRGTGIPARFSGSGSGTDFTLTISSLEPEDFAVYYCQQRSNWPPWTFGQGTKVEIKR
notes: Fab made in E. coli: VH on CH1 with His6 and Flag tags (Plasmid A), VL on kappa CL (Plasmid C); also called H: APFF & L: NDH A55G
For B2, the “ELISA absorbance at 450 nm” value in [4] came to 0.51 A450; in experiment [5], 0.316 A450; in [6] it was 0.814 A450; in [7] it was 0.198 A450; in experiment [8], 0.125 A450; in experiment [9], 0.093 A450.

B3: Fab VH1-46_IGHD6-6*01_IGHJ1*01 S102A/S103P/S104F/H111F & L6_IGKJ1*01 S28N/S30D/S31H S52T (Fab, V domains shown)
VH: B1 VH
VL: B2 VL with S52T, G55A
notes: Fab made in E. coli: VH on CH1 with His6 and Flag tags (Plasmid A), VL on kappa CL (Plasmid C); also called H: APFF & L: NDH S52T
As to B3, the “ELISA absorbance at 450 nm” value in [4] was found to be 0.49 A450; in experiment [5], 0.323 A450; in experiment [6], 0.653 A450; in experiment [7], 0.215 A450; in experiment [8], 0.13 A450; in experiment [9] it was 0.099 A450.

B4: Fab VH1-46_IGHD6-6*01_IGHJ1*01 S102A/S103P/S104F/H111F & L6_IGKJ1*01 S28N/S30D/S31H A55S (Fab, V domains shown)
VH: B1 VH
VL: B2 VL with G55S
notes: Fab made in E. coli: VH on CH1 with His6 and Flag tags (Plasmid A), VL on kappa CL (Plasmid C); also called H: APFF & L: NDH A55S
For the molecule B4, the “ELISA absorbance at 450 nm” value in [4] was 0.588 A450; in experiment [5], 0.407 A450; in [6], 0.858 A450; in experiment [7], 0.258 A450; in experiment [8], 0.154 A450; in experiment [9], 0.108 A450.

B5: Fab VH1-46_IGHD6-6*01_IGHJ1*01 S102A/S103P/S104F/H111F & L6_IGKJ1*01 S28N/S30D/S31H N53H (Fab, V domains shown)
VH: B1 VH
VL: B2 VL with N53H, G55A
notes: Fab made in E. coli: VH on CH1 with His6 and Flag tags (Plasmid A), VL on kappa CL (Plasmid C); also called H: APFF & L: NDH N53H
B5: the “ELISA absorbance at 450 nm” value in [4] is 0.416 A450; in [5] it was 0.238 A450; in [6], 0.608 A450; in experiment [7], 0.167 A450; in experiment [8], 0.109 A450; in experiment [9] it was 0.089 A450.

B6: Fab VH1-46_IGHD6-6*01_IGHJ1*01 S102A/S103P/S104F/H111F N52L/S54T/G56H & L6_IGKJ1*01 (Fab, V domains shown)
VH: B1 VH with N52L, S54T, G56H
VL: not shown
notes: Fab made in E. coli: VH on CH1 with His6 and Flag tags (Plasmid A), VL on kappa CL (Plasmid C); also called H: APFF LTH & L: wt
B6: the “ELISA absorbance at 450 nm” value in experiment [10] amounted to 2.48 A450; in experiment [11] it was 2.35 A450; in experiment [12], 2.4 A450; in experiment [13], 0.653 A450; in [14], 2.15 A450; in [15] it was 2.35 A450. Moreover, the “ELISA absorbance at 450 nm” value in [16] is 2.4 A450; in experiment [17] it was 1.37 A450.

B7: Fab VH1-46_IGHD6-6*01_IGHJ1*01 S102A/S103P/S104F/H111F I51T/N52V & L6_IGKJ1*01 (Fab, V domains shown)
VH: B1 VH with I51T, N52V
VL: not shown
notes: Fab made in E. coli: VH on CH1 with His6 and Flag tags (Plasmid A), VL on kappa CL (Plasmid C); also called H: APFF TV & L: wt; APFF I51T/N52V
In the case of B7, the “ELISA absorbance at 450 nm” value in [10] came to 0.724 A450; in experiment [11], 0.506 A450; in experiment [12], 0.648 A450; in [13], 0.055 A450; in [14] it was 0.358 A450; in [15], 0.506 A450. Further, the “ELISA absorbance at 450 nm” value in experiment [16] came out at 0.648 A450; in [17] it was 0.115 A450.

B8: Fab VH1-46_IGHD6-6*01_IGHJ1*01 S102A/S103P/S104F/H111F & L6_IGKJ1*01 S28N/S30D/S31H S52L (Fab, V domains shown)
VH: B1 VH
VL: B2 VL with S52L, G55A
notes: Fab made in E. coli: VH on CH1 with His6 and Flag tags (Plasmid A), VL on kappa CL (Plasmid C); also called H: APFF & L: NDH S52L
B8: the “ELISA absorbance at 450 nm” value amounted to 0.546 A450 in experiment [4]; 0.335 A450 in experiment [5]; 0.791 A450 in experiment [6]; 0.215 A450 in [7]; 0.142 A450 in experiment [8]; 0.095 A450 in [9].

B9: Fab VH1-46_IGHD6-6*01_IGHJ1*01 S102A/S103P/S104F/H111F S54A & L6_IGKJ1*01 S28N/S30D/S31H (Fab, V domains shown)
VH: B1 VH with S54A
VL: B2 VL with G55A
notes: Fab made in E. coli: VH on CH1 with His6 and Flag tags (Plasmid A), VL on kappa CL (Plasmid C); also called H: APFF S54A & L: NDH
B9: the entries for the “ELISA absorbance at 450 nm” value in experiment [1], in experiment [2] and in experiment [3] were 0.154 A450, 0.212 A450 and 0.213 A450, respectively.

B10: Fab VH1-46_IGHD6-6*01_IGHJ1*01 S102A/S103P/S104F/H111F G56A & L6_IGKJ1*01 S28N/S30D/S31H (Fab, V domains shown)
VH: B1 VH with G56A
VL: B2 VL with G55A
notes: Fab made in E. coli: VH on CH1 with His6 and Flag tags (Plasmid A), VL on kappa CL (Plasmid C); also called H: APFF G56A & L: NDH
With B10, the “ELISA absorbance at 450 nm” value is 0.366 A450 in experiment [1], 0.543 A450 in [2] and 0.453 A450 in [3].

B11: Fab VH1-46_IGHD6-6*01_IGHJ1*01 S102A/S103P/S104F/H111F I51V/N52L/S54T/G56H & L6_IGKJ1*01 (Fab, V domains shown)
VH: B1 VH with I51V, N52L, S54T, G56H
VL: not shown
notes: Fab made in E. coli: VH on CH1 with His6 and Flag tags (Plasmid A), VL on kappa CL (Plasmid C); also called H: APFF VLTH & L: wt
B11: the “ELISA absorbance at 450 nm” value in experiment [10] was 2.2 A450; in [11], 1.85 A450; in [12], 2.05 A450; in experiment [13], 0.252 A450; in [14] it was 1.66 A450; in [15] it was 1.85 A450. Besides, the “ELISA absorbance at 450 nm” value is 2.05 A450 in [16] and 0.785 A450 in [17].

B12: Fab VH1-46_IGHD6-6*01_IGHJ1*01 S102A/S103P/S104F/H111F G56A & L6_IGKJ1*01 (Fab, V domains shown)
VH: B1 VH with G56A
VL: not shown
notes: Fab made in E. coli: VH on CH1 with His6 and Flag tags (Plasmid A), VL on kappa CL (Plasmid C); also called H: APFF G56A & L: wt
Consider B12, for which the “ELISA absorbance at 450 nm” value in [1] came to 0.301 A450; in experiment [2] it was 0.399 A450; in experiment [3] it was 0.338 A450.

The values are drawn from patent publication US20110318339A1 (FABRUS, published 2011).
